Measurements: publication PMC3478855

Legend:
Assay in all cases: SPR
[1] = system: hemagglutinin (HA) of AIV H5N1, purified (Influenza A virus H5N1); conditions: PBS 10 mM pH 7.4, temperature not stated; cited from earlier work
[2] = system: AIV H5N9 whole virus (Influenza A virus H5N9); conditions: biotin, PBS 10 mM pH 7.4, temperature not stated
[3] = system: inactivated AIV H1N1 whole virus (Influenza A virus H1N1); conditions: biotin, PBS 10 mM pH 7.4, temperature not stated
[4] = system: inactivated AIV H2N2 whole virus (Influenza A virus H2N2); conditions: biotin, PBS 10 mM pH 7.4, temperature not stated
[5] = system: inactivated AIV H5N1 whole virus (HA on virion) (Influenza A virus H5N1); conditions: biotin, PBS 10 mM pH 7.4, temperature not stated
[6] = system: inactivated AIV H5N2 whole virus (Influenza A virus H5N2); conditions: biotin, PBS 10 mM pH 7.4, temperature not stated
[7] = system: inactivated AIV H7N2 whole virus (Influenza A virus H7N2); conditions: biotin, PBS 10 mM pH 7.4, temperature not stated
[8] = system: inactivated AIV H9N2 whole virus (Influenza A virus H9N2); conditions: biotin, PBS 10 mM pH 7.4, temperature not stated

In the case of “GTGTGCATGGATAGCACGTAACGGTGTAGTAGATACGTGCGGGTAGGAAGAAAGGGAAATAGTTGTCCTGTTG [H5N1 DNA aptamer, best candidate (previous study)]”, the Kd [1] is listed as 4.65 nM.
“GTGTGCATGGATAGCACGTAACGGTGTAGTAGATACGTGCGGGTAGGAAGAAAGGGAAATAGTTGTCCTGTTG [H5N1 DNA aptamer, biotinylated (sensor)]” gave a binding signal [2] of 3 RI 10^-6, a binding signal [3] of -4 RI 10^-6 and a binding signal [4] of -1 RI 10^-6. It also gave a binding signal [5] of 262 RI 10^-6, a binding signal [6] of 10 RI 10^-6 and a binding signal [7] of 7 RI 10^-6. The binding signal [8] was 2 RI 10^-6.
